Tests used:
Test in all cases: purified protein
Type in all cases: biochemical, Bacillus amyloliquefaciens
purified protein [1] = substrate: NC(=O)c1ccc[n+]([C@@H]2O[C@H](COP(=O)(O)OP(=O)(O)OC[C@H]3O[C@@H](n4cnc5c(N)ncnc54)[C@H](OP(=O)(O)O)[C@@H]3O)[C@@H](O)[C@H]2O)c1; settings: co-substrate glucose, apparent, pH and temperature of kinetics not stated (default assay Tris-Cl pH 8 or CPB buffer, 37 °C), varied: cofactor
purified protein [2] = substrate: NC(=O)c1ccc[n+]([C@@H]2O[C@H](COP(=O)(O)OP(=O)(O)OC[C@H]3O[C@@H](n4cnc5c(N)ncnc54)[C@H](O)[C@@H]3O)[C@@H](O)[C@H]2O)c1; settings: co-substrate glucose, apparent, pH and temperature of kinetics not stated (default assay Tris-Cl pH 8 or CPB buffer, 37 °C), varied: cofactor
purified protein [3] = substrate: OC[C@H]1O[C@@H](O)[C@H](O)[C@@H](O)[C@@H]1O; settings: with 0.5 mM NADP+, apparent, pH and temperature of kinetics not stated (default assay Tris-Cl pH 8 or CPB buffer, 37 °C)

B1: GluDH-BA (Bacillus amyloliquefaciens) (protein)
chain: MYTDLKGKVVAITGASSGLGKAMAIRFGQEQAKVVVNYYSNEKDAQTVKEEIQKAGGEAVIIQGDVTKEEDVKNIVQTAVKEFGTLDVMINNAGMENPVQSHEMPLKDWNKVINTNLTGAFLGSREAIKYYVENDIQGNVINMSSVHEMIPWPLFVHYAASKGGIKLMTETLALEYAPKRIRVNNIGPGAINTPINAEKFADPVQRKDVESMIPMGYIGEPEEIAAVAVWLASKESSYVTGITLFADGGMTKYPSFQAGRG
notes: full length (261 aa, 28 kDa), 6xHis inserted right after start Met, pET23b, E. coli BL21(DE3), Ni-purified; tag cleavage not mentioned
Km (purified protein [1]): 50 ± 4 µM | kcat (purified protein [1]): 70 ± 0.3 s⁻¹ | Km (purified protein [2]): 250 ± 30 µM | Km (purified protein [3]): 5500 ± 280 µM | kcat (purified protein [3]): 70 ± 0.3 s⁻¹
